Assay results from the nanobody polyreactivity screen of Harvey et al. (2022).

test: yeast display, Sf9 membrane polyspecificity reagent, FACS + sequencing; frameworks hold sequencing errors
In short: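 A nanobody's polyreactivity label depends on the gate it was sorted from. Yeast display cells were stained with 10% biotinylated, detergent-solubilized Sf9 membrane reagent for 1 hour at 4 °C, enriched on streptavidin microbeads and sorted by FACS. The low and high (top ~1%) gates were set on anti-HA fluorescence for expression and streptavidin fluorescence for reagent binding.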

Row | Sequence | polyreactivity (PSR sort gate)
1 | QDQLVESGGGLVQAGGSLRLSCAASGRTFTYYAMGWYRQAPGKDRELDAGISSGGGSTYYADSVKGRFTISRDHAKNTVYLQMNSLKPEDTAVYYCATAKRQGGYSEYDYWGQGTQVTVSS | high polyreactivity
2 | QDQLVESGGGLVQAGGSLRLSCAASGRTFYKYAMGWYRQAPGKERELVAAIRTGGGTSYADSVKGRFTISRDNAKNTVYLQMNSLKPEDTAVYYCNARGVYFWWRLDYWGQGTQVTVSS | low polyreactivity
3 | QDQLVESGGGLVQAGGSLRLSCAASGRTIYQNAMGWYRQAPGKERELVAAISRSGGSTYYADSVKGRFTISRDNAKNTVYLQMNSLKPEDTAVYYCAADPRSYGGGYDYWGQGPQVTVSS | high polyreactivity
4 | QDQLVESGGGLVQAGGSLRLSCAASGSIFFARYSMGWYTQAPGKERELVAAITRATSTTYADSVKGRFTISRDNAKNTVYLQMKSLKPEDTAVYYCNADPAYQFDYWGQGTQVTVSS | high polyreactivity
5 | QDQLVESGGGLVQAGGSLRLSCAASGSIFFLYAMGWYRQAPGKERELVAAIRLSGGSTYYADSVKGRFTISRDNAKNTVYLQMNSLKPEDTAVYYCAAESAAASAVYSVEYDYWGQGTQVTVSS | low polyreactivity
6 | QDQLVESGGGLVQAGGSLRLSCAASGSIFGKYTMGWYRQAPGKERELVAAISRSGSSTYYADSVKGRFTISRDNAKNTVYLQMNSLKPEDTAVYYCAAKFYYGVTSKFESWGQGTQVTVSS | high polyreactivity
7 | QDQLVESGGGLVQAGGSLRLSCAASGSIFPRYDMGWYRQAPGKERELVAAITGSGSSTYYADSVKGRFSISRDNAMNTVYLQMNSLKPEDTAGYYCAARKSRPPFPPPFDYYWRQGTQVTVSS | low polyreactivity
8 | QDQLVESGGGLVQAGGSLRLSCAASGSIFPYNAMAWSRQAPGTERELVAGITYNGGSTYYADSVKGRFTISRDNAKNTVYLQMNSLKREDTAVYYCAAAGRRAFYRYDHWGQGTQVTVSS | high polyreactivity
9 | QDQLVESGGGLVQAGGSLRLSCAASGSIFRAYAMGRYRQPPGKERELVAAIIWTDGSTYYADSVKGRFTISRDNAKNTVYLQMNSLKPEDTAVYYCAKDSIARHNYWGQGTQVTLSS | low polyreactivity
10 | QDQLVESGGGLVQAGGSLRLSCAASGSIFRYYDMGWSRQAPGKERELVAAISDSTGTTYYADSVKGRFTISRDNAKNTVYLQMNSLKPEDTAVYYCNTAYNRYWRPFNSLYYWGQGTQVTVSS | high polyreactivity
11 | QDQLVESGGGLVQAGGSLRLSCAASGSIFSTNAMGWYRQAPGKERELVAAITYSGSRTYYADSVKGRFTISRDTAKNTVFLQMNSLKPEDTAVYYCAADTSWYSWWFDYWGQGTQVTVSS | low polyreactivity
12 | QDQLVESGGGLVQAGGSLRLSCAASGSIFSYYAMGWYRHAPAKDRELVAAITGVGGTNYADSVKGRFTISRDNAKNTVYLQMNSLKPEDTAVYYCAARQYWRRYQYYYWGQGTQVTVSS | high polyreactivity
13 | QDQLVESGGGLVQAGGSLRLSCAASGSIFTDNVMGWYRQATGKERELVAAITSTGGNTYYADSVKGRFTISRDNAKNTVYLQMNSLKREDTAVYYSNKDVARYPYGKFDYWGQGTQVTVSS | low polyreactivity
14 | QDQLVESGGGLVQAGGSLRLSCAASGSIFVHYVMGWYRQAPGKERELVAAISSRGGGTFYADSVKGRFTISRDNAKNTVYLQMNSLKPEDTAVSYCARVPYFGSGAIRDYWGQGTQVTVSS | high polyreactivity
15 | QDQLVESGGGLVQAGGSLRLSCAASGSIFWGYDMGWYRQAPGKEMELVARISYSGGSTSYADSVKGRFTISRDNAKNTVYLQMNSLKPEDTAVYYCAADEGGFWWTYPYDSWGQGTQVTVSS | low polyreactivity
16 | QDQLVESGGGLVQAGGSLRLSCAASGSIFYVNTMGWYRQAHGKERELVADISSGDSTYYADSVKGRFTISRDNAKNTVYLQMNSLKPEDTAVYYCIADVYSWVSGKEGDYWGQGTQVTVSS | low polyreactivity
17 | QDQLVESGGGLVQAGGSLRLSCAASGSIIPFYAMGWYRQAPGKERELVAAITYSGGSTFYADSVKGRFTISRDNAKNTVYLQMNSLKPEDTAVYYCNAVWRFGSSKYYYWGQGTQVTVSS | high polyreactivity
18 | QDQLVESGGGLVQAGGSLRLSCAASGSIIVRNAMGWYRQAPGKERELVAAISRSGSSTYYADSVKGRFTISRDNAKITVFCQMNSLKPEDTAVYYCAKRRPALRWIYYYWGQGTQVTVSS | high polyreactivity
19 | QDQLVESGGGLVQAGGSLRLSCAASGSIIYAYAMGWYRQAPGKERELVAAISWTGGSTYYADSVKGRFTISRDNAKNTVYLQMNCLKPEDTAVYYCAATYYQVASFYVTRYDYWGQGTQVTVSS | low polyreactivity
20 | QDQLVESGGGLVQAGGSLRLSCAASGSNFRFNAMGWDTQAPGKEREFDAANSRSGGRTYYADSVKGRFRISRDNAKNTVYFQMNCLKPEDTAVFYCNAVWRFPIGRSAPRYDYWGQGTQVTVSS | high polyreactivity

Row | Sequence | polyreactivity (PSR sort gate)
21 | QDQLVESGGGLVQAGGSLRLSCAASGSTDYTYDMGWYRQAPGKERELVASITSGGSTNYADSVKGRFTISRDNAKNTVYFQMNSVKPQDTAVYYCAVGTYTIYSGTLYDYKYYWGQGTQVTVSS | low polyreactivity
22 | QDQLVESGGGLVQAGGSLRLSCAASGSTFGYARGWYRQAPGKERELVAAITSTGGSTYYADSVKGRFTISRDNAKNTVYLQMNSLKPEDTAVYYCAAQVGRVYVVYPVYKYGYWGQGTQVTVSS | high polyreactivity
23 | QDQLVESGGGLVQAGGSLRLSCAASGSTFPLYAMGSYREAPGKERELVADITVSGGSTYYADSVKGRFTISRDNAKNTVYLQMNSLNPEDTAVYYCNADDRSPFPDYWWYPYDYDYGGQGTQVTVSS | low polyreactivity
24 | QDQLVESGGGLVQAGGSLRLSCAASGSTFPPYAMGWNRQAPGKERELVDTSTRIGGSTYYADSVKGRFTISRDNAKKTVYLQKNSLKPEDTALYYCTARRYQSYRYYYWGQGTQVTVSS | high polyreactivity
25 | QDQLVESGGGLVQAGGSLRLSCAASGSTFSRNAMGWYRQAPGKERELVAAISWRGGRTYYADSVKGRFTISRDNAKNTVYLQMNSLKPEDTAVYYCAAEHKYRYDYWGQGTQVTVSS | low polyreactivity
26 | QDQLVESGGGLVQAGGSLRLSCAASGSTFTYYAMGWYRQAPGKERELVAAIRNSDGTTYYADSVKGRFTLSRDTAKFTVYLQMNSLKPEDTAVYYCAAGPRGRWSTYDYWGQGTQVNVSS | low polyreactivity
27 | QDQLVESGGGLVQAGGSLRLSCAASGSTFYIYAMGWYRQAPGQERELVARISGSRGSTYYADSVKGRFTISRDNAKNTVYLQMNSLKPEDTAVYYCAADDIYNYYQYYAFPYYRYDYWGQGTQVTVSS | low polyreactivity
28 | QDQLVESGGGLVQAGGSLRLSCAASGSTLRGYAMGWYRQAPGKEREFVASITSSGSRTYADSVKGRFTISRDNAKNTVYLQMNSLKPEDTAVYYCAANRWPLKGYTSRYWGYWYNYWGQGTQVTVSS | high polyreactivity
29 | QDQLVESGGGLVQAGGSLRLSCAASGTIFRGYTMGWYRQAPGKERELVAAISSSGGRTHYADSVKGRFTISRDNAKNTVYLQMNSLKPEDSAVYYCAADYYRTPKSGSSGLDYWGQGTQVTLSS | low polyreactivity
30 | QDQLVESGGGLVQAGGSLRLSCAASGYIFRYYAMGWYRQAPGKERELVAAISWNGGRTYYADSVKGRFTISRDNAKNTVYLQMNSLKPEDTAVYYCNTYWDGAREYDYWGQGTQVTVSS | high polyreactivity
31 | QDQLVESGGGLVQAGGSLRLSCAASGYIFSTYAMGWYRQAPGKERELVAAISSSGGSTYYADSVKGRFTISRDNAKNTVFLQMNSLKPEDTAVYYCYAGKHVRQRYDHWGQGTQVSVSS | high polyreactivity
32 | QDQLVESGGGLVQAGGSLRLSCAASGYTFRYNAMGWYIQATGKERELVATITRGGSTNYADSVKGRFTISRDNAKNTVYLQMNSLKPEDTAVYYCNKEAAPLAFVPSYYGRDYWGQGTEVTVSS | low polyreactivity
33 | QDQLVESGGGLVQAGGSLRLSCAASGYTFSYYAMGWYRQAPGKERELVARISWGGGSTYYADSVKGRFTISRDNAKNTVYLQMNSLKPEDTAVYYCNARDLGRDWYWPEDDYWGQGTQVTVSS | low polyreactivity
34 | QDQLVESGGGLVQAGGSLRLSCAASRSIFYGYATRSYRQEPGKESELVAAISYSGDRTYYADSVKGRFTISRDNAKNTVYLQMNSLKPEDTAVYYCAAESRGVGAYYYRGQGTQVTVSS | high polyreactivity
35 | QDQLVESGGGLVQAGGSLRLSCAASVRIFWLYAMGWYRQAPGKERELVAVISWSGGTTYYADSVKGRFTISRDNAKNTVYLQMNSLKPEDTAVYSCAAQVGFYTNYREFDYWGQGTQVTVSS | low polyreactivity
36 | QDQLVESGGGLVQAGGSLRLSCAASVSIFGSYAMGWYRQAPGKERELVAGITSSGGSTYYADSVKGRFTISRDNAKNTVYLQMNSLKPEDTAVYYCNAPLGWWQFYYCGQGTQVTVSS | high polyreactivity
37 | QDQLVESGGGLVQAGGSLRLSCAAYGNTIIRYAMGWYRQAPGKERELVAAIAYSGGRTYYADSVKGRFTISRDNAKNTVFLQMNSLKPEDTAVYYCNAASRYGGDYWGQGTQVTVSS | high polyreactivity
38 | QDQLVESGGGLVQAGGSLRLSCAAYGRIFRANVMGWYRQAPGKERELVAAINWSGGSTYYADSVKGRFTISRDIAKNTVYLQMNSLKPEDTAVYYCAAAYKWFGEGRFYYWGQGTQVTVSS | high polyreactivity
39 | QDQLVESGGGLVQAGGSLRLSCAGSGSTFKRYAMGWYRQAPGKDRELVAAISRRGGSTYYADSVKGRFTISRDNAKNTVYLQMNSLKPEDTAVYYCAARGTGNIYDYWGQGTQVTVSS | high polyreactivity
40 | QDQLVESGGGLVQAGGSLRLSCAPSGRTFGGYSMGWYRQAPGKERELVASNTSGGSTYYADSVKGRFTISRDNAKNTVYLQMNSLKPEDTAVYYCAAVTYFETSSRAIPSNDYWGQGTQVTVSS | low polyreactivity
